The source of these data is patent US20180369374A1 (published 2018).

Experiment [1] has as its target T1, OX40R on mouse CD4+ T-cells (mouse, UniProt P47741 20-272).
T1 sequence (looked up): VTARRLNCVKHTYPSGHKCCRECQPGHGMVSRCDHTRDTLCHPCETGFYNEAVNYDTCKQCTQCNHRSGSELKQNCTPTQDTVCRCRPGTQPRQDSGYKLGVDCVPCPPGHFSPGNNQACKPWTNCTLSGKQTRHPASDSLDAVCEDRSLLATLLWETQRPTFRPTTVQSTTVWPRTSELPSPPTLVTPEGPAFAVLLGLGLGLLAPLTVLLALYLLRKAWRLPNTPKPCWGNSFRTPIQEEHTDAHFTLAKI
Kind of experiment: cell-based or functional assay.

Experiment [2] concerns the target T2, mCTLA-4-His (Life Technologies) (mouse, UniProt P09793 36-162, limits assumed).
T2 construct: Bought reagent coated on ELISA plates; also called CTLA-4-coated plates; not shown: His tag
Kind of experiment: ELISA, HeLa supernatant on mCTLA-4-His-coated plates, HRP-goat anti-mouse IgG Fc detection. The procedure: The following mRNAs encoding anti-CTLA-4 antibody heavy and light chains (HC and LC mRNAs) were designed and assayed for expression by measuring both CTLA-4-bound antibody and total IgG produced (FIG. 1): (1) 9D9 VH:mIgG2a (IgG2a^a allele) plus 9D9 VL:mIgGk; and (2) 9D9 VH:mIgG2b plus 9D9 VL:mIgGk. HeLa cells were transfected in 6-well plates with mRNA formulated in Lipofectamine 2000. Cell supernatants were harvested at 18 hours post transfection. Supernatants were assayed for binding to CTLA-4-coated plates (mCTLA-4-His (Life Technologies)) and detection was with HRP-Goat anti-mouse IgG Fc, 1:10000 (JIR). Purified 9D9 antibody (BioXcell) was used for the standard curve in the CTLA-4-binding ELISA. The Mouse IgG total ELISA Ready-SET-Go® assay (eBioscience) was used for quantitating total mouse IgG, with a mouse IgG internal standard.
(In an ELISA, binding on a coated surface is turned into a signal by an enzyme label.)

B1: murine OX40L polypeptide expressed from mOX40L_miR122 on B16F10 cells (ligand)
chain: MEGEGVQPLDENLENGSRPRFKWKKTLRLVVSGIKGAGMLLCFIYVCLQLSSSPAKDPPIQRLRGAVTRCEDGQLFISSYKNEYQTMEVQNNSVVIKCDGLYIIYLKGSFFQEVKIDLHFREDHNPISIPMLNDGRRIVFTVVASLAFKDKVYLTVNAPDTLCEHLQINDGELIVVQLTPGYCAPEGSYHSTVNQVPL
Regarding B1, the “mouse IL-2 production by CD4+ T-cells co-cultured with OX40L-expressing B16F10 cells (IL-2 ELISA), against mock-treated or non-translated mRNA control” value in experiment [1] is roughly 2 fold.

B2: 9D9 IgG2a antibody (9D9 VH:mIgG2a (IgG2a^a allele) plus 9D9 VL:mIgGk), mRNA-encoded (antibody)
heavy: EAKLQESGPVLVKPGASVKMSCKASGYTFTDYYMNWVKQSHGKSLEWIGVINPYNGDTSYNQKFKGKATLTVDKSSSTAYMELNSLTSEDSAVYYCARYYGSWFAYWGQGTLITVSTAKTTAPSVYPLAPVCGDTTGSSVTLGCLVKGYFPEPVTLTWNSGSLSSGVHTFPAVLQSDLYTLSSSVTVTSSTWPSQSITCNVAHPASSTKVDKKIEPRGPTIKPCPPCKCPAPNLLGGPSVFIFPPKIKDVLMISLSPIVTCVVVDVSEDDPDVQISWFVNNVEVHTAQTQTHREDYNSTLRVVSALPIQHQDWMSGKEFKCKVNNKDLPAPIERTISKPKGSVRAPQVYVLPPPEEEMTKKQVTLTCMVTDFMPEDIYVEWTNNGKTELNYKNTEPVLDSDGSYFMYSKLRVEKKNWVERNSYSCSVVHEGLHNHHTTKSFSRTPGK
light: DIVMTQTTLSLPVSLGDQASISCRSSQSIVHSNGNTYLEWYLQKPGQSPKLLIYKVSNRFSGVPDRFSGSGSGTDFTLKISRVEAEDLGVYYCFQGSHVPYTFGGGTKLEIKRADAAPTVSIFPPSSEQLTSGGASVVCFLNNFYPKDINVKWKIDGSERQNGVLNSWTDQDSKDSTYSMSSTLTLTKDEYERHNSYTCEATHKTSTSPIVKSFNRNEC
notes: Full heavy and light chains expressed from mRNA in HeLa cells, tested as cell supernatant; The entries are whole ORFs and may include a signal peptide; also called HC-2Aa:LC; 9D9 2a
As to B2, the binding result in experiment [2] is “binds”.

B3: 9D9 IgG2b antibody (9D9 VH:mIgG2b plus 9D9 VL:mIgGk), mRNA-encoded (antibody)
heavy: EAKLQESGPVLVKPGASVKMSCKASGYTFTDYYMNWVKQSHGKSLEWIGVINPYNGDTSYNQKFKGKATLTVDKSSSTAYMELNSLTSEDSAVYYCARYYGSWFAYWGQGTLITVSTAKTTPPSVYPLAPGCGDTTGSSVTLGCLVKGYFPESVTVTWNSGSLSSSVHTFPALLQSGLYTMSSSVTVPSSTWPSQTVTCSVAHPASSTTVDKKLEPSGPISTINPCPPCKECHKCPAPNLEGGPSVFIFPPNIKDVLMISLTPKVTCVVVDVSEDDPDVQISWFVNNVEVHTAQTQTHREDYNSTIRVVSTLPIQHQDWMSGKEFKCKVNNKDLPSPIERTISKIKGLVRAPQVYILPPPAEQLSRKDVSLTCLVVGFNPGDISVEWTSNGHTEENYKDTAPVLDSDGSYFIYSKLNMKTSKWEKTDSFSCNVRHEGLKNYYLKKTISRSPGK
light: DIVMTQTTLSLPVSLGDQASISCRSSQSIVHSNGNTYLEWYLQKPGQSPKLLIYKVSNRFSGVPDRFSGSGSGTDFTLKISRVEAEDLGVYYCFQGSHVPYTFGGGTKLEIKRADAAPTVSIFPPSSEQLTSGGASVVCFLNNFYPKDINVKWKIDGSERQNGVLNSWTDQDSKDSTYSMSSTLTLTKDEYERHNSYTCEATHKTSTSPIVKSFNRNEC
notes: Full heavy and light chains expressed from mRNA in HeLa cells, tested as cell supernatant; The entries are whole ORFs and may include a signal peptide; also called HC-2B:LC; 9D9 2b
For B3, the binding result in experiment [2] is recorded as “binds”.
